B1: GpH7-A5/GpH7-B3 variant Y300_13S/GpL16-k0 (antibody, human IgG1, kappa)
heavy 1: not shown
heavy 2: not shown
light: DIVMTQSPLSLPVTPGEPASISCQASESLVHSNRNTYLHWYLQKPGQSPQLLIYKVSNRFSGVPDRFSGSGSGTDFTLKISRVEAEDVGVYYCSQNTHVPPTFGQGTKVEIERTVAAPSVFIFPPSDEQLKSGTASVVCLLNNFYPREAKVQWKVDNALQSGNSQESVTEQDSKDSTYSLSSTLTLSKADYEKHKVYACEVTHQGLSSPVTKSFNRGEC
notes: position is EU numbering; also called He Ab
B2: GpH7-A5/GpH7-B3 variant P331_07I/GpL16-k0 (antibody, human IgG1, kappa)
heavy 1: not shown
heavy 2: not shown
light: DIVMTQSPLSLPVTPGEPASISCQASESLVHSNRNTYLHWYLQKPGQSPQLLIYKVSNRFSGVPDRFSGSGSGTDFTLKISRVEAEDVGVYYCSQNTHVPPTFGQGTKVEIERTVAAPSVFIFPPSDEQLKSGTASVVCLLNNFYPREAKVQWKVDNALQSGNSQESVTEQDSKDSTYSLSSTLTLSKADYEKHKVYACEVTHQGLSSPVTKSFNRGEC
notes: heterodimerized antibody, mutation in one H chain only; also called He Ab
B3: GpH7-A5/GpH7-B3 variant S239_07I/GpL16-k0 (antibody, human IgG1, kappa)
heavy 1: not shown
heavy 2: not shown
light: DIVMTQSPLSLPVTPGEPASISCQASESLVHSNRNTYLHWYLQKPGQSPQLLIYKVSNRFSGVPDRFSGSGSGTDFTLKISRVEAEDVGVYYCSQNTHVPPTFGQGTKVEIERTVAAPSVFIFPPSDEQLKSGTASVVCLLNNFYPREAKVQWKVDNALQSGNSQESVTEQDSKDSTYSLSSTLTLSKADYEKHKVYACEVTHQGLSSPVTKSFNRGEC
notes: as for B2
B4: GpH7-A5/GpH7-B3 variant S239_14T/GpL16-k0 (antibody, human IgG1, kappa)
heavy 1: not shown
heavy 2: not shown
light: DIVMTQSPLSLPVTPGEPASISCQASESLVHSNRNTYLHWYLQKPGQSPQLLIYKVSNRFSGVPDRFSGSGSGTDFTLKISRVEAEDVGVYYCSQNTHVPPTFGQGTKVEIERTVAAPSVFIFPPSDEQLKSGTASVVCLLNNFYPREAKVQWKVDNALQSGNSQESVTEQDSKDSTYSLSSTLTLSKADYEKHKVYACEVTHQGLSSPVTKSFNRGEC
notes: as for B2
B5: GpH7-A5/GpH7-B3 variant Q295_06M/GpL16-k0 (antibody, human IgG1, kappa)
heavy 1: not shown
heavy 2: not shown
light: DIVMTQSPLSLPVTPGEPASISCQASESLVHSNRNTYLHWYLQKPGQSPQLLIYKVSNRFSGVPDRFSGSGSGTDFTLKISRVEAEDVGVYYCSQNTHVPPTFGQGTKVEIERTVAAPSVFIFPPSDEQLKSGTASVVCLLNNFYPREAKVQWKVDNALQSGNSQESVTEQDSKDSTYSLSSTLTLSKADYEKHKVYACEVTHQGLSSPVTKSFNRGEC
notes: as for B2
B6: GpH7-A5/GpH7-B3 variant Q295_10E/GpL16-k0 (antibody, human IgG1, kappa)
heavy 1: not shown
heavy 2: not shown
light: DIVMTQSPLSLPVTPGEPASISCQASESLVHSNRNTYLHWYLQKPGQSPQLLIYKVSNRFSGVPDRFSGSGSGTDFTLKISRVEAEDVGVYYCSQNTHVPPTFGQGTKVEIERTVAAPSVFIFPPSDEQLKSGTASVVCLLNNFYPREAKVQWKVDNALQSGNSQESVTEQDSKDSTYSLSSTLTLSKADYEKHKVYACEVTHQGLSSPVTKSFNRGEC
notes: as for B2
B7: GpH7-A5/GpH7-B3 variant S337_03V/GpL16-k0 (antibody, human IgG1, kappa)
heavy 1: not shown
heavy 2: not shown
light: DIVMTQSPLSLPVTPGEPASISCQASESLVHSNRNTYLHWYLQKPGQSPQLLIYKVSNRFSGVPDRFSGSGSGTDFTLKISRVEAEDVGVYYCSQNTHVPPTFGQGTKVEIERTVAAPSVFIFPPSDEQLKSGTASVVCLLNNFYPREAKVQWKVDNALQSGNSQESVTEQDSKDSTYSLSSTLTLSKADYEKHKVYACEVTHQGLSSPVTKSFNRGEC
notes: as for B2
B8: GpH7-A5/GpH7-B3 variant P331_09D/GpL16-k0 (antibody, human IgG1, kappa)
heavy 1: not shown
heavy 2: not shown
light: DIVMTQSPLSLPVTPGEPASISCQASESLVHSNRNTYLHWYLQKPGQSPQLLIYKVSNRFSGVPDRFSGSGSGTDFTLKISRVEAEDVGVYYCSQNTHVPPTFGQGTKVEIERTVAAPSVFIFPPSDEQLKSGTASVVCLLNNFYPREAKVQWKVDNALQSGNSQESVTEQDSKDSTYSLSSTLTLSKADYEKHKVYACEVTHQGLSSPVTKSFNRGEC
notes: as for B2
B9: GpH7-A5/GpH7-B3 variant P331_13S/GpL16-k0 (antibody, human IgG1, kappa)
heavy 1: not shown
heavy 2: not shown
light: DIVMTQSPLSLPVTPGEPASISCQASESLVHSNRNTYLHWYLQKPGQSPQLLIYKVSNRFSGVPDRFSGSGSGTDFTLKISRVEAEDVGVYYCSQNTHVPPTFGQGTKVEIERTVAAPSVFIFPPSDEQLKSGTASVVCLLNNFYPREAKVQWKVDNALQSGNSQESVTEQDSKDSTYSLSSTLTLSKADYEKHKVYACEVTHQGLSSPVTKSFNRGEC
notes: as for B2
B10: GpH7-A5/GpH7-B3 variant P331_14T/GpL16-k0 (antibody, human IgG1, kappa)
heavy 1: not shown
heavy 2: not shown
light: DIVMTQSPLSLPVTPGEPASISCQASESLVHSNRNTYLHWYLQKPGQSPQLLIYKVSNRFSGVPDRFSGSGSGTDFTLKISRVEAEDVGVYYCSQNTHVPPTFGQGTKVEIERTVAAPSVFIFPPSDEQLKSGTASVVCLLNNFYPREAKVQWKVDNALQSGNSQESVTEQDSKDSTYSLSSTLTLSKADYEKHKVYACEVTHQGLSSPVTKSFNRGEC
notes: as for B2
B11: GpH7-A5/GpH7-B3 variant P331_06M/GpL16-k0 (antibody, human IgG1, kappa)
heavy 1: not shown
heavy 2: not shown
light: DIVMTQSPLSLPVTPGEPASISCQASESLVHSNRNTYLHWYLQKPGQSPQLLIYKVSNRFSGVPDRFSGSGSGTDFTLKISRVEAEDVGVYYCSQNTHVPPTFGQGTKVEIERTVAAPSVFIFPPSDEQLKSGTASVVCLLNNFYPREAKVQWKVDNALQSGNSQESVTEQDSKDSTYSLSSTLTLSKADYEKHKVYACEVTHQGLSSPVTKSFNRGEC
notes: as for B2
B12: GpH7-A5/GpH7-B3 variant P331_10E/GpL16-k0 (antibody, human IgG1, kappa)
heavy 1: not shown
heavy 2: not shown
light: DIVMTQSPLSLPVTPGEPASISCQASESLVHSNRNTYLHWYLQKPGQSPQLLIYKVSNRFSGVPDRFSGSGSGTDFTLKISRVEAEDVGVYYCSQNTHVPPTFGQGTKVEIERTVAAPSVFIFPPSDEQLKSGTASVVCLLNNFYPREAKVQWKVDNALQSGNSQESVTEQDSKDSTYSLSSTLTLSKADYEKHKVYACEVTHQGLSSPVTKSFNRGEC
notes: as for B2
B13: GpH7-A5/GpH7-B3 variant S239_06M/GpL16-k0 (antibody, human IgG1, kappa)
heavy 1: not shown
heavy 2: not shown
light: DIVMTQSPLSLPVTPGEPASISCQASESLVHSNRNTYLHWYLQKPGQSPQLLIYKVSNRFSGVPDRFSGSGSGTDFTLKISRVEAEDVGVYYCSQNTHVPPTFGQGTKVEIERTVAAPSVFIFPPSDEQLKSGTASVVCLLNNFYPREAKVQWKVDNALQSGNSQESVTEQDSKDSTYSLSSTLTLSKADYEKHKVYACEVTHQGLSSPVTKSFNRGEC
notes: as for B2
B14: GpH7-A5/GpH7-B3 variant S239_05P/GpL16-k0 (antibody, human IgG1, kappa)
heavy 1: not shown
heavy 2: not shown
light: DIVMTQSPLSLPVTPGEPASISCQASESLVHSNRNTYLHWYLQKPGQSPQLLIYKVSNRFSGVPDRFSGSGSGTDFTLKISRVEAEDVGVYYCSQNTHVPPTFGQGTKVEIERTVAAPSVFIFPPSDEQLKSGTASVVCLLNNFYPREAKVQWKVDNALQSGNSQESVTEQDSKDSTYSLSSTLTLSKADYEKHKVYACEVTHQGLSSPVTKSFNRGEC
notes: as for B2
B15: GpH7-A5/GpH7-B3 variant P331_18N/GpL16-k0 (antibody, human IgG1, kappa)
heavy 1: not shown
heavy 2: not shown
light: DIVMTQSPLSLPVTPGEPASISCQASESLVHSNRNTYLHWYLQKPGQSPQLLIYKVSNRFSGVPDRFSGSGSGTDFTLKISRVEAEDVGVYYCSQNTHVPPTFGQGTKVEIERTVAAPSVFIFPPSDEQLKSGTASVVCLLNNFYPREAKVQWKVDNALQSGNSQESVTEQDSKDSTYSLSSTLTLSKADYEKHKVYACEVTHQGLSSPVTKSFNRGEC
notes: as for B2
B16: GpH7-A5/GpH7-B3 variant P331_08L/GpL16-k0 (antibody, human IgG1, kappa)
heavy 1: not shown
heavy 2: not shown
light: DIVMTQSPLSLPVTPGEPASISCQASESLVHSNRNTYLHWYLQKPGQSPQLLIYKVSNRFSGVPDRFSGSGSGTDFTLKISRVEAEDVGVYYCSQNTHVPPTFGQGTKVEIERTVAAPSVFIFPPSDEQLKSGTASVVCLLNNFYPREAKVQWKVDNALQSGNSQESVTEQDSKDSTYSLSSTLTLSKADYEKHKVYACEVTHQGLSSPVTKSFNRGEC
notes: as for B2
B17: GpH7-A5/GpH7-B3 variant Y300_14T/GpL16-k0 (antibody, human IgG1, kappa)
heavy 1: not shown
heavy 2: not shown
light: DIVMTQSPLSLPVTPGEPASISCQASESLVHSNRNTYLHWYLQKPGQSPQLLIYKVSNRFSGVPDRFSGSGSGTDFTLKISRVEAEDVGVYYCSQNTHVPPTFGQGTKVEIERTVAAPSVFIFPPSDEQLKSGTASVVCLLNNFYPREAKVQWKVDNALQSGNSQESVTEQDSKDSTYSLSSTLTLSKADYEKHKVYACEVTHQGLSSPVTKSFNRGEC
notes: as for B1

How the values were obtained:
[1] = target: T1, FcγRIIIa extracellular domain with C-terminal His tag (human, UniProt P08637 17-208); assay: SPR (Biacore); ratio of He/Con_3a (FcγRIIIa) to He/Con_2b (FcγRIIb)
T1 construct: extracellular domain; also called FcgRIIIa; 3a; not shown: His tag at the C terminus
Outline: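 Biacore measurement, 25 °C: antigen peptide fixed to CM5 (amine coupling) or SA (biotin) chip; antibody captured; FcγR as analyte in HBS-EP+.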

[2] = target: T2, FcγRIIb extracellular domain with C-terminal His tag (human, UniProt P31994 43-217); assay: SPR (Biacore), antibody captured, FcγR as analyte; He Ab binding / GpH7-A5/GpH7-B3/GpL16-k0 binding x 100
T2 construct: extracellular domain; also called FcgRIIb; 2b; not shown: His tag at the C terminus
T2 sequence (looked up): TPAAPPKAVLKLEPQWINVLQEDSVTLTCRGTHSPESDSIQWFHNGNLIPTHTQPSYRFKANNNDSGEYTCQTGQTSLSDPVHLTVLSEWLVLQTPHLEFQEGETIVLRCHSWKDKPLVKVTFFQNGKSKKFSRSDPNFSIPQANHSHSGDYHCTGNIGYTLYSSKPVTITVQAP

[3] = target: T1, FcγRIIIa extracellular domain with …; assay: as above
[4] = target: T3, FcγRIIa R (human FcγRIIa, allotype R, Arg at position 131), extracellular domain with C-terminal His tag (human, UniProt P12318 34-217); assay: SPR (Biacore), relative binding vs GpH7-A5/GpH7-B3/GpL16-k0
T3 construct: extracellular domain; expressed in FreeStyle293 cells; analyte in Biacore; also called 2aR; FcgRIIa R
T3 sequence (looked up): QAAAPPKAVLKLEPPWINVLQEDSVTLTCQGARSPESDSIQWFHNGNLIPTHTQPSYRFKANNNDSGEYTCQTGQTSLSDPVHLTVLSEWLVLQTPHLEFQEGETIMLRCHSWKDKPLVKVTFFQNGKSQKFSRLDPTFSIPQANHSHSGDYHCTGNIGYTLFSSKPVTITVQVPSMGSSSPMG
Description: Analysis of interaction between objective antibody and the FcγR was carried out using Biacore T100 (GE Healthcare). HBS-EP+ (GE Healthcare) was used as the running buffer, and the measurement temperature was set to 25° C. Chips produced by immobilizing the antigen peptide by the amine coupling method to a Series S Sencor Chip CM5 (GE Healthcare), or alternatively, chips produced by allowing preliminarily biotinylated antigen peptides to interact with and immobilize onto a Series S Sensor Chip SA (certified) (GE Healthcare) were used. Antibodies of interest were captured onto an antigen peptide-immobilized chip, and allowed to interact to each FcγR diluted with running buffer. To regenerate and repeatedly use the chip, the antibodies captured on the chip were washed off by reacting 10 mM glycine-HCl, pH 1.5.
The FcγR-binding activity of each antibody was assessed primarily using as an indicator the FcγR-binding activity and dissociation constant for FcγR.

T1 sequence (P08637 17-208): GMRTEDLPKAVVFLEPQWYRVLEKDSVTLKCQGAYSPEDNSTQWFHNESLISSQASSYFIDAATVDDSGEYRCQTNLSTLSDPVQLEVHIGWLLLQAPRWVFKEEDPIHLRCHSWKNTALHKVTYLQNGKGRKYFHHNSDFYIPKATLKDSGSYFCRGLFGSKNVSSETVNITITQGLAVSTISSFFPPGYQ

Row | Binder | He/Con_2aR [4] | also measured
1 | B1 | – | He_3a/2b (IIIa/IIb) [1]: 1.37 ratio; He/Con_2b (IIb binding) [2]: 53.9 relative, control = 100; He/Con_3a (IIIa binding) [3]: 73.9 relative, control = 100
2 | B2 | 110 relative, control = 100 | –
3 | B3 | 102 relative, control = 100 | –
4 | B4 | 103 relative, control = 100 | –
5 | B5 | 102 relative, control = 100 | –
6 | B6 | 102 relative, control = 100 | –
7 | B7 | 106 relative, control = 100 | –
8 | B8 | 102 relative, control = 100 | –
9 | B9 | 105 relative, control = 100 | –
10 | B10 | 104 relative, control = 100 | –
11 | B11 | 106 relative, control = 100 | –
12 | B12 | 113 relative, control = 100 | –
13 | B13 | 101 relative, control = 100 | –
14 | B14 | 106 relative, control = 100 | –
15 | B15 | 105 relative, control = 100 | –
16 | B16 | 102 relative, control = 100 | –
17 | B17 | – | He_3a/2b (IIIa/IIb) [1]: 1.53 ratio; He/Con_2b (IIb binding) [2]: 55.6 relative, control = 100; He/Con_3a (IIIa binding) [3]: 85.4 relative, control = 100
